Reference: patent publication US20080014191A1

Assays:
[1] = target: ΔF508 CFTR (Homo sapiens (Human)) (UniProt P13569); experiment: CFTR co-IP and Hsp90 immunoblot; HEK293 ΔF508 cells, ~60% knock-down of Aha1
[2] = target: wild-type cystic fibrosis transmembrane conductance regulator (CFTR) (Homo sapiens (Human)) (UniProt P13569); experiment: CFTR co-IP, MudPIT MS; BHK cells
[3] = target: wild-type cystic fibrosis transmembrane conductance regulator (CFTR) (Homo sapiens (Human)) (UniProt P13569); experiment: CFTR co-IP, MudPIT MS; HT29 cells
[4] = target: wild-type cystic fibrosis transmembrane conductance regulator (CFTR) (Homo sapiens (Human)) (UniProt P13569); experiment: CFTR co-IP, MudPIT MS; Calu-3 cells
[5] = target: wild-type cystic fibrosis transmembrane conductance regulator (CFTR) (Homo sapiens (Human)) (UniProt P13569); experiment: CFTR co-IP, MudPIT MS; BHK wt, Calu-3, HT29, T84
[6] = target: ΔF508 CFTR (Homo sapiens (Human)) (UniProt P13569); experiment: CFTR co-IP, MudPIT MS; ΔF508

ΔF508 CFTR (Homo sapiens (Human)), sequence (P13569 other isoform, or with tags, fused parts or gaps mutant limits assumed): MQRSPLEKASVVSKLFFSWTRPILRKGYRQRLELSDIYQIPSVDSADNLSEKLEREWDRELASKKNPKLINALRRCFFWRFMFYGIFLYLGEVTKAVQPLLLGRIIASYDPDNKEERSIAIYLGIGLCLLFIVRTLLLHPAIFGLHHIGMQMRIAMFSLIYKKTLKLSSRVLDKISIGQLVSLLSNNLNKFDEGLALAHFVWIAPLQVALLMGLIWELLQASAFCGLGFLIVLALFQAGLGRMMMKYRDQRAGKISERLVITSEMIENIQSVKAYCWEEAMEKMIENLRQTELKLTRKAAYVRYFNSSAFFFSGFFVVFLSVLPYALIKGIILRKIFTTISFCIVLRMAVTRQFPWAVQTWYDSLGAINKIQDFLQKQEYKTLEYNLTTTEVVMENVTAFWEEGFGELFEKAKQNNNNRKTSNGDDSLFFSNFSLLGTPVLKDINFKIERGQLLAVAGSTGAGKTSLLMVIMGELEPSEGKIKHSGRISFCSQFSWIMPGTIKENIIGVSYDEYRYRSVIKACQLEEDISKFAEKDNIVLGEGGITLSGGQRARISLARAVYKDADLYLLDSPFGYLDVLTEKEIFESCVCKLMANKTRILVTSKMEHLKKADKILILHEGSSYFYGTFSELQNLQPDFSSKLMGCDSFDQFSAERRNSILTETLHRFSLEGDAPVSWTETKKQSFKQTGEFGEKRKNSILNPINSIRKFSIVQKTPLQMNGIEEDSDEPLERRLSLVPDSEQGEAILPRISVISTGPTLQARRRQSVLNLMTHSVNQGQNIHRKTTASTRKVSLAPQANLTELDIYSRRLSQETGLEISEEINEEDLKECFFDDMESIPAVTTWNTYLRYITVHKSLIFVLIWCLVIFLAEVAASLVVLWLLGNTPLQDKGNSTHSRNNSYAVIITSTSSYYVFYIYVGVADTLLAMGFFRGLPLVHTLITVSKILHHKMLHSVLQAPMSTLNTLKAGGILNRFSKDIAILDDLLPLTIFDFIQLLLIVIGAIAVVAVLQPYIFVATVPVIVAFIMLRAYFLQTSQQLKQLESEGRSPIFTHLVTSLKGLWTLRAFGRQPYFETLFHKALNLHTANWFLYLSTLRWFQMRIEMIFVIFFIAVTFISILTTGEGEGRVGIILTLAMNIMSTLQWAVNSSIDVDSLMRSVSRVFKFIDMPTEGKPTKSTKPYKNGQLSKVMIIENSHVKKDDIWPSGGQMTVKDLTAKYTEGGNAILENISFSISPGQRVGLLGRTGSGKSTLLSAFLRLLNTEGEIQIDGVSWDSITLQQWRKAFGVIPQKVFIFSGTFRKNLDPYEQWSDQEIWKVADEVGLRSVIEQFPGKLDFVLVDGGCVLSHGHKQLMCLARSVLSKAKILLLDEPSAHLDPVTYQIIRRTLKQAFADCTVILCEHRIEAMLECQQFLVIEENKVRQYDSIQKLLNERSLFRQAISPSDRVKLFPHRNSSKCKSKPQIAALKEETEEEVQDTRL
wild-type cystic fibrosis transmembrane conductance regulator (CFTR) (Homo sapiens (Human)), sequence (P13569 whole entry): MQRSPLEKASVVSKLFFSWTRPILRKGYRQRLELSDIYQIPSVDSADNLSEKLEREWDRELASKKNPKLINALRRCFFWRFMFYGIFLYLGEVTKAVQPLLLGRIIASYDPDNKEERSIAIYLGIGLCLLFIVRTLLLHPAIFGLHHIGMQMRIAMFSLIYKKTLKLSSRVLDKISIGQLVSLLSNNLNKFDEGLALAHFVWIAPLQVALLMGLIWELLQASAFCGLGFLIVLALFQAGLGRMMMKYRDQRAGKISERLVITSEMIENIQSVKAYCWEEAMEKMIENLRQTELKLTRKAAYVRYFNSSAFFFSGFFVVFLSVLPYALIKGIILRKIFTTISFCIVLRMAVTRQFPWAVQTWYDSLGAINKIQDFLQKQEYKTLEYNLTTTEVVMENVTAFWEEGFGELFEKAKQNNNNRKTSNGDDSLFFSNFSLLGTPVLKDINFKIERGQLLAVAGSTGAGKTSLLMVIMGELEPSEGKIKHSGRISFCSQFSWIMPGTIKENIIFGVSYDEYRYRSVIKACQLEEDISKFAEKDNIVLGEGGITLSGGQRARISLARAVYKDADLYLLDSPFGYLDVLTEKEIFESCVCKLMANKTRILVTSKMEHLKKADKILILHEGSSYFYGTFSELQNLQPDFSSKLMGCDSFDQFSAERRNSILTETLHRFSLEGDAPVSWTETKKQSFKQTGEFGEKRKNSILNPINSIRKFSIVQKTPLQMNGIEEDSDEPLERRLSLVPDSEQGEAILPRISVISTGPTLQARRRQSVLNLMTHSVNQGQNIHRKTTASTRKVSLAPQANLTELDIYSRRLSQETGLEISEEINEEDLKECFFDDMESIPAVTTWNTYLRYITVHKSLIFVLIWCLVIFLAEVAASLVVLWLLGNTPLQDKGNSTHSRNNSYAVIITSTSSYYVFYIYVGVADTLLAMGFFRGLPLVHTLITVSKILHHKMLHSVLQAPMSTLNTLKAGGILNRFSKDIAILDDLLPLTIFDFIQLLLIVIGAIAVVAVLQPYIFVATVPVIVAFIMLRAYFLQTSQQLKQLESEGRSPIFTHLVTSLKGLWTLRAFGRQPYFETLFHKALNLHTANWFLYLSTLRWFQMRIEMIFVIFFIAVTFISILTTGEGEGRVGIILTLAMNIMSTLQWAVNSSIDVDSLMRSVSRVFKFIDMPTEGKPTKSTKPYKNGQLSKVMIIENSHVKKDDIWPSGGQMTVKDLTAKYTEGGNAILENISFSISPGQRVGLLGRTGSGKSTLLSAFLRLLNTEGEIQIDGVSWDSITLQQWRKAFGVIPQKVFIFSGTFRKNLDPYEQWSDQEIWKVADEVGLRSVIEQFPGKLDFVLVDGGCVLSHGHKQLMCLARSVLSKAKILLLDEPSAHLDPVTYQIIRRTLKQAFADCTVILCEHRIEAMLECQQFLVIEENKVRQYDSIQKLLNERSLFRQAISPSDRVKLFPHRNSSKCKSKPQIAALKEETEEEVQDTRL

Substance: Hsp90
- decrease of bound Hsp90 (ratio of Hsp90 to CFTR in the immunoprecipitate) after Aha1 dsRNA against scrambled control [1]: 50 to 60%

Substance: NHERF-1 (from UniProt O14745 2-358)
- % sequence coverage [2]: 20%
- total peptide spectra [2]: 6 spectra
- unique peptide spectra [2]: 5 spectra
- % sequence coverage [3]: 11%
- total peptide spectra [3]: 2 spectra
- unique peptide spectra [3]: 2 spectra

Substance: NHERF-2 (from UniProt Q15599 1-337)
- % sequence coverage [3]: 20%
- total peptide spectra [3]: 10 spectra
- unique peptide spectra [3]: 7 spectra
- % sequence coverage [4]: 14%
- total peptide spectra [4]: 5 spectra
- unique peptide spectra [4]: 4 spectra

Substance: Sec61 alpha subunit isoform 1 (from UniProt P61619 1-476)
- % sequence coverage [5]: 11%
- total peptide spectra [5]: 7 spectra
- unique peptide spectra [5]: 4 spectra

Substance: Sec61, alpha subunit 2 (from UniProt Q9H9S3 1-476)
- % sequence coverage [5]: 11%
- total peptide spectra [5]: 2 spectra
- unique peptide spectra [5]: 2 spectra

Substance: THR interactor 12 (from UniProt Q14669 2-1992)
- % sequence coverage [5]: 2%
- total peptide spectra [5]: 2 spectra
- unique peptide spectra [5]: 2 spectra

Substance: VCP/p97/Cdc48 (from UniProt P55072 2-806)
- % sequence coverage [5]: 7%
- total peptide spectra [5]: 2 spectra
- unique peptide spectra [5]: 2 spectra
- % sequence coverage [6]: 25%
- total peptide spectra [6]: 14 spectra
- unique peptide spectra [6]: 10 spectra

Substance: proteasome 26S, non-ATPase, 2 (from UniProt Q13200 1-908)
- % sequence coverage [5]: 4%
- total peptide spectra [5]: 2 spectra
- unique peptide spectra [5]: 2 spectra
- % sequence coverage [6]: 13%
- total peptide spectra [6]: 8 spectra
- unique peptide spectra [6]: 7 spectra

Substance: proteasome, alpha type 2 (from UniProt P49722 2-234)
- % sequence coverage [6]: 17%
- total peptide spectra [6]: 5 spectra
- unique peptide spectra [6]: 2 spectra

Substance: proteasome, alpha type 5 (from UniProt Q9Z2U1 1-241)
- % sequence coverage [6]: 23%
- total peptide spectra [6]: 3 spectra
- unique peptide spectra [6]: 3 spectra

Substance: proteasome, beta type 1 (from UniProt O09061 28-240)
- % sequence coverage [6]: 23%
- total peptide spectra [6]: 3 spectra
- unique peptide spectra [6]: 3 spectra

Substance: proteasome, beta type, 3 (from UniProt P49720 2-205)
- % sequence coverage [6]: 24%
- total peptide spectra [6]: 3 spectra
- unique peptide spectra [6]: 3 spectra

Substance: proteasome, beta type, 4 (from UniProt P28070 46-264)
- % sequence coverage [6]: 16%
- total peptide spectra [6]: 2 spectra
- unique peptide spectra [6]: 2 spectra

Substance: ubiquitin protein ligase E3A (from UniProt Q05086 1-875) (enzyme)
- % sequence coverage [5]: 6%
- total peptide spectra [5]: 2 spectra
- unique peptide spectra [5]: 2 spectra

Substance: ubiquitin specific protease 9 (from UniProt Q93008 1-2554) (enzyme)
- % sequence coverage [5]: 1%
- total peptide spectra [5]: 3 spectra
- unique peptide spectra [5]: 2 spectra
